The text below walks through data of US6617117B1, “MAP kinases: polypeptides, polynucleotides and uses thereof” (Medical Research Council, priority 1996, dated 2003).

One test deals with T1, SAPK4 (Homo sapiens, UniProt O15264).
T1 sequence (O15264 1-365): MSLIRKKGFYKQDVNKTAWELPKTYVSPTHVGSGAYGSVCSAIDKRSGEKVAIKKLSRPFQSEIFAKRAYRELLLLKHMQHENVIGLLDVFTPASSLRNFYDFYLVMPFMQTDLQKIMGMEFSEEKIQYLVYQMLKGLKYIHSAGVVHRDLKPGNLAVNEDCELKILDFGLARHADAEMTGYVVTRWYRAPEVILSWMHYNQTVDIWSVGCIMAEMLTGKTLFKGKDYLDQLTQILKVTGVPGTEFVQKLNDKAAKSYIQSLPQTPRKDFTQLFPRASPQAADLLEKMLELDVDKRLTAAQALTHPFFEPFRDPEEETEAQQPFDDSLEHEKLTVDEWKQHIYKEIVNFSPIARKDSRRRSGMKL
Kind of test: Co-transfection of SAPK4 with SKK3 into COS cells. The note with it: n=3. The test is classed as cell-based. Details: expressed in transfected cells; host or cells: COS1 cells, co-transfected with human SKK3. How it is done: For bacterial expression, the open reading frames of human cDNA clones hSAPK2B2, hSAPK32 and hSAPK412 were amplified by PCR and subcloned as EcoRI fragments into expression vector pGEX4T-1 (Pharmacia), followed by transformation into E. coli strain BL21(DE3). The transformed bacteria were grown to an absorbance of 0.6 at 600 nm and induced with 0.4 mM isopropyl-1-thio-β-galactopyranoside (IPTG). […] For expression of c-myc epitope-tagged SAPK4, PCR was used to introduce the nucleotide sequence encoding the amino acid sequence […] (SEQ. ID. NO: 4) at the carboxy-terminus of SAPK4, followed by a stop codon. The resulting EcoRI/NotI fragment was subcloned into the mammalian expression vector pcDNA3.1 (Invitrogen). […] PCR fragments were verified by DNA sequencing. Transfections into COS1 cells were done as described in Example 4 and Cuenda et al, 1997.
We have shown previously that SKK3 accounts for 95% and SKK2 for 5% of the SAPK2a activator detected after Mono S chromatography of lysates from KB cells that have been stressed in several ways or stimulated with IL1 (Cuenda et al, 1996; Meier et al, 1996). […] SKK3 was also the only activator of SAPK4 after subjecting KB cells to osmotic stress using sorbitol (data not shown). Further evidence that SKK3 can activate SAPK4 in vivo was obtained by co-transfection into COS cells. […]

The target in test [1] is T2, SAPK3 (Rattus norvegicus, UniProt Q63538).
T2 sequence (Q63538 1-367): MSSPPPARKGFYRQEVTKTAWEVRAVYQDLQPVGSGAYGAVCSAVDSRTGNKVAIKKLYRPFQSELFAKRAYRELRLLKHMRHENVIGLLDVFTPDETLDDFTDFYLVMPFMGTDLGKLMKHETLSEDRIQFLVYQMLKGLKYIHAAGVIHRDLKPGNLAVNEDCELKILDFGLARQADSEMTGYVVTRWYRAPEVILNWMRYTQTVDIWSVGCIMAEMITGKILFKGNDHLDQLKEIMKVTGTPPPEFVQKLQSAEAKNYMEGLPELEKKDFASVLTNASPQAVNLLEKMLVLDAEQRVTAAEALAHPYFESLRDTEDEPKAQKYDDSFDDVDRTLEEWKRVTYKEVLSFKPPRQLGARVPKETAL
The test can be described thus: Co-transfection of SAPK3 with SKK3 into COS cells (FIG. 14). The arrangement: expressed in transfected cells; host or cells: COS-1 cells (vector pSG5), alone or with human SKK3 or MEK kinase. The test is classed as cell-based. How it is done: FIG. 14. SKK3 activates SAPK3 in transfected cells. COS-1 cells were transiently transfected with DNA expressing SAPK3 or co-transfected with either SKK3 or MEK kinase (MEKK). Cells were stimulated in DMEM for 15 min or with 0.5 M sorbitol. After stimulation and lysis, SAPK3 was immunoprecipitated from the cell lysates using an anti-SAPK3 antibody raised against the C-terminal 16 residues of SAPK3 (see Methods) and activity measured using MBP as the substrate.
Cell culture and transient transfections. 293, KB and COS-7 cells were cultured in Dulbecco's modified Eagles' Medium (DMEM) supplemented with 10% foetal calf serum, at 37° C., in an atmosphere of 5% CO2. Transfections of 293 cells were carried out using the calcium-phosphate method. Cells were split to a density of 2×106 per 10 cm dish, and after 12 h at 37° C., 10 μg of plasmid DNA in 0.45 ml of sterile water was added to 50 μl of sterile CaCl2, and then 0.5 ml of sterile buffer composed of 50 mM N,N-bis[2-hydroxyethyl]-2-aminoethanesulphonic acid/HCl pH 6.96, 0.28 M NaCl and 1.5 mM Na2HPO4 was added. The resulting mixture was vortexed for 1 min, allowed to stand at room temperature for 20 min, and then added dropwise to a 10 cm dish of 293 cells. The cells were placed in an atmosphere of 3% CO2 for 16 h at 37° C., then the medium was aspirated and replaced with new DMEM containing 10% foetal calf serum. […]

Test [2] has as its target T2, SAPK3. The test can be described thus: Activation of transfected myc epitope-tagged SAPK3 in KB and 293 cells, immunoprecipitation and MBP assay. The class given is cell-based, human. The arrangement: expressed in transfected cells; host or cells: human KB and 293 cells (vector pSG5). The note with it: FIG. 11A. On the procedure:
FIG. 11. SAPK3 is activated by cytokines and cellular stresses in KB and 293 cells. KB cells (A) or 293 cells (B) were transiently transfected with a DNA construct expressing a myc epitope-tagged SAPK3. Cells in DMEM were stimulated for 15 min with 0.5 M sorbitol (an osmotic shock), 20 ng/ml IL-1α, 100 ng/ml TNFa, 0.5 mM sodium arsenite (a chemical stress), 100 ng/ml of EGF or 300 ng/ml TPA, or for 30 min with […] anisomycin or 10 min with 100 ng/ml IGF-1. UV-C irradiation of cells was carried out at 60 J/m2 (KB cells) or 200 J/m2 (293 cells) and the cells then left for a further 30 min at 37° C. before lysis. The myc epitope-tagged SAPK3 was immunoprecipitated from cell lysates using the 9E10 monoclonal antibody and assayed with MBP as substrate. […] After UV-C irradiation, SAPK3 activity in the extracts was 0.18 U/mg (KB cells) and 0.1 U/mg (293 cells).
Cell culture and transient transfections. 293, KB and COS-7 cells were cultured in Dulbecco's modified Eagles' Medium (DMEM) supplemented with 10% foetal calf serum, at 37° C., in an atmosphere of 5% CO2. Transfections of 293 cells were carried out using the calcium-phosphate method. […]

B1: SKK3: SAP kinase kinase 3, upstream activator of SAPK2a, SAPK2b, SAPK3 and SAPK4 (protein)
chain: MSQSKGKKRNPGLKIPKEAFEQPQTSSTPPRDLDSKACISIGNQNFEVKADDLEPIMELGRGAYGVVEKMRHVPSGQIMAVKRIRATVNSQEQKRLLMDLDISMRTVDCPFTVTFYGALFREGDVWICMELMDTSLDKFYKQVIDKGQTIPEDILGKIAVSIVKALEHLHSKLSVIHRDVKPSNVLINALGQVKMCDFGISGYLVDSVAKTIDAGCKPYMAPERINPELNQKGYSVKSDIWSLGITMIELAILRFPYDSWGTPFQQLKQVVEEPSPQLPADKFSAEFVDFTSQCLKKNSKERPTYPELMQHPFFTLHESKGTDVASFVKLILGD
As to B1, the “Elevation of SAPK4 activity by co-expression” value with SAPK4 was determined as 12.5±0.63 fold. Moreover, in the test with SAPK3 [1], the “Elevation of SAPK3 activity by coexpression” value is listed as 10 fold. For the same molecule, the “Greater activation of transfected SAPK3 by osmotic shock where cotransfected” value in the test with SAPK3 [1] (osmotic shock) came out at 30 fold.

B2: EGF: growth factor stimulus from Boehringer (protein, UniProt P01133 23-1207, looked up)
Pro-epidermal growth factor: PQHWSCPEGTLAGNGNSTCVGPAPFLIFSHGNSIFRIDTEGTNYEQLVVDAGVSVIMDFHYNEKRIYWVDLERQLLQRVFLNGSRQERVCNIEKNVSGMAINWINEEVIWSNQQEGIITVTDMKGNNSHILLSALKYPANVAVDPVERFIFWSSEVAGSLYRADLDGVGVKALLETSEKITAVSLDVLDKRLFWIQYNREGSNSLICSCDYDGGSVHISKHPTQHNLFAMSLFGDRIFYSTWKMKTIWIANKHTGKDMVRINLHSSFVPLGELKVVHPLAQPKAEDDTWEPEQKLCKLRKGNCSSTVCGQDLQSHLCMCAEGYALSRDRKYCEDVNECAFWNHGCTLGCKNTPGSYYCTCPVGFVLLPDGKRCHQLVSCPRNVSECSHDCVLTSEGPLCFCPEGSVLERDGKTCSGCSSPDNGGCSQLCVPLSPVSWECDCFPGYDLQLDEKSCAASGPQPFLLFANSQDIRHMHFDGTDYGTLLSQQMGMVYALDHDPVENKIYFAHTALKWIERANMDGSQRERLIEEGVDVPEGLAVDWIGRRFYWTDRGKSLIGRSDLNGKRSKIITKENISQPRGIAVHPMAKRLFWTDTGINPRIESSSLQGLGRLVIASSDLIWPSGITIDFLTDKLYWCDAKQSVIEMANLDGSKRRRLTQNDVGHPFAVAVFEDYVWFSDWAMPSVMRVNKRTGKDRVRLQGSMLKPSSLVVVHPLAKPGADPCLYQNGGCEHICKKRLGTAWCSCREGFMKASDGKTCLALDGHQLLAGGEVDLKNQVTPLDILSKTRVSEDNITESQHMLVAEIMVSDQDDCAPVGCSMYARCISEGEDATCQCLKGFAGDGKLCSDIDECEMGVPVCPPASSKCINTEGGYVCRCSEGYQGDGIHCLDIDECQLGEHSCGENASCTNTEGGYTCMCAGRLSEPGLICPDSTPPPHLREDDHHYSVRNSDSECPLSHDGYCLHDGVCMYIEALDKYACNCVVGYIGERCQYRDLKWWELRHAGHGQQQKVIVVAVCVVVLVMLLLLSLWGAHYYRTQKLLSKNPKNPYEESSRDVRSRRPADTEDGMSSCPQPWFVVIKEHQDLKNGGQPVAGEDGQAADGSMQPTSWRQEPQLCGMGTEQGCWIPVSSDKGSCPQVMERSFHMPSYGTQTLEGGVEKPHSLLSANPLWQQRALDPPHQMELTQ
modifications: Pro-epidermal growth factor
notes: growth factor stimulus from Boehringer
On to B2, for which, in the test with SAPK3 [2], the “Activation of transfected SAPK3 (in words)” value was “more weakly”.
